The record followed here is PMC8342710, “Switching at the ribosome: riboswitches need rProteins as modulators to regulate translation”.

In data set [1] the target is 30SΔS1 ribosomal subunit (rS1-depleted);ribosomal protein rS1 (Escherichia coli JE28;Vibrio vulnificus CMCP6) (UniProt A0A3Q0L6Y6). In words: MST. The following applies: MST: 25 mM K-phosphate pH 7.2, 150 mM KCl, 5 mM MgCl2, 5 mM DTT, 0.4 mg/mL BSA, 0.05% Tween20, RNasin, 25 °C, EMSA: 25 mM K-phosphate pH 7.2, 75 mM KCl.
The target in data set [2] is rS1-depleted 30S ribosomes from E. coli (E. coli (endogenous in strain JE28)) (UniProt P0A7V0). The data set is described as follows: MST; labeled 30SΔS1 (30 nM) with a 1:1 dilution series of rS1 (3 µM); 30 min at 25 °C; 25 mM potassium phosphate pH 7.2, 150 mM KCl, 5 mM MgCl2, 5 mM DTT, 0.4 mg/mL BSA, 0.05% Tween20, RNasin.
The target in data set [3] is ribosomal protein rS1 (Vibrio vulnificus CMCP6, UniProt A0A3Q0L6Y6 1-556). In words: NMR; holo (adenine); 1:1 rS1 opens P4 and P5 by 50%; MST: 25 mM K-phosphate pH 7.2, 150 mM KCl, 5 mM MgCl2, 5 mM DTT, 0.4 mg/mL BSA, 0.05% Tween20, RNasin, 25 °C; EMSA: 25 mM K-phosphate pH 7.2, 75 mM KCl, 5 mM DTT, on ice. The following applies: protein: recombinant; tags: N-terminal His-thioredoxin tag, cleaved by TEV; label: 13C,15N (NMR); riboswitch fold with helices P1-P5.

In the case of “GCUUCAUAUAAUCCUAAUGAUAUGGUUUGGGAGUUUCUACCAAGAGCCUUAAACUCUUGAUUAUGAAGUCUGUCGCUUUAUCCGAAAUUUUAUAAAGAGAAGACUCAUGAAUUACUUUGACCUGCCG [ASW14-140, Cy5-labeled add riboswitch]”, in data set [1], the Kd amounted to 60 nM. This lies in the double-digit nanomolar range.

On to “ribosomal protein rS1 from Vibrio vulnificus (from UniProt A0A3Q0L6Y6 1-556) (natural protein)”, for which the Kd in data set [2] worked out at 170 nM.

B1: ASW14-140, add riboswitch (structured_RNA)
RNA: GCUUCAUAUAAUCCUAAUGAUAUGGUUUGGGAGUUUCUACCAAGAGCCUUAAACUCUUGAUUAUGAAGUCUGUCGCUUUAUCCGAAAUUUUAUAAAGAGAAGACUCAUGAAUUACUUUGACCUGCCG
Consider B1, for which the binding result in data set [3] is listed as “binds”.
